Test results: patent US20050042747A1, “Hivgp120-induced bob/gpr15 activation” (priority 2001, published 2005)

Columns and labels:
Design in all cases: key: — = no calcium flux seen at any dilution tested
[1] = system: Ghost (3) parental cell line; assay: gp120-induced calcium flux, Ghost (3) parental cell line; assay type: cell-based, human
Method: Calcium studies were done on HT-29 cells and Ghost (3) cells loaded with Fluo 4. The cells were placed in Locke's buffer containing 5 μg/ml Fluo 4 AM ester (Molecular Probes) for 20 to 30 minutes, then in Locke's buffer for an additional 30 minutes before testing. Various concentrations of gp120IIIB (X4 trophic), gp120CM235 (R5 trophic), gp120mN (X4 trophic), gp12093TH975 (nonsyncytium-inducing primary isolate from an asymptomatic subject, trophism undetermined but likely R5), and gp120SF2 (X4R5 trophic), ranging from 10 nM to less than 1 pM, were added in Locke's buffer.^6 The gp120 proteins were obtained from the AIDS Research Reagent Referral Program. Some HT-29 cells were given one of the following pretreatments: 50 μg/ml anti-Bob37 overnight, 1 μg/ml pertussis toxin overnight, or 4.6 μg/ml U73122 for one hour. With the HT-29 cells only, similar tests were also performed with SDF-1, MIP-1α, MIP-1β, and RANTES rather than gp120. The cells were visualized every 4 seconds in a confocal microscope, using 488 nm argon laser excitation and detection filters appropriate for fluorescein-like dyes.
(§1) Human osteosarcoma cell lines were transfected to express CD4, one or another of the HIV coreceptors, and a Green Fluorescent Protein reporter for active HIV infection, for the purpose of testing which of the known coreceptors was used to induce HIV infection by a given HIV strain (Morner A. J Virol 73:2343-9, 1999 and Deng K Nature 388:296-300, 1997). These cells were obtained from the AIDS Research and Reference Reagent Program, courtesy of Dr. Vineet KewalRamani and Dr. Dan Littman. These cells were grown in DMEM with 10% bovine calf serum supplemented with 0.5 mg/ml G418, 0.1 mg/ml hygromycin, and 1 microgram/ml puromycin, and were used at low passage number (less than 10). We have discovered that these cell lines are also activated by gp120 of certain viral strains, inducing a calcium flux in these cells.
Within 4 days of plating, coreceptor-transfected Ghost (3) cells (as well as the parent cell line not transfected to express any HIV coreceptors as a control) were put in Locke's medium, then treated with Fluo-4 (5 micrograms/ml for 30 minutes at 37° C.). After an additional 30 minute incubation in Locke's buffer at room temperature, the cells were examined in a confocal microscope while gp120 of various viral strains was added, and the cells were examined at 4 second intervals to look for a gp120-induced calcium flux. The results are given in the following table, expressed as the minimal concentration of gp120 resulting in a significant calcium flux. “−” means that no reproducible calcium flux was observed. “ND” means that the gp120 of that viral strain was not tested with the stated coreceptor. […]

CCR8 = molecular target: T1, CCR8 (Homo sapiens, UniProt P51685); assay: gp120-induced calcium flux, Ghost (3) cells transfected with CCR8; assay type: cell-based; details: Ghost (3) CCR8 cells
T1 construct: host or cells: Ghost (3) cells (human osteosarcoma, CD4+)
Excerpt: as §1
(§2) Within 4 days of plating, coreceptor-transfected Ghost (3) cells (as well as the parent cell line not transfected to express any HIV coreceptors as a control) were put in Locke's medium, then treated with Fluo-4 (5 micrograms/ml for 30 minutes at 37° C.). […] The results are given in the following table, expressed as the minimal concentration of gp120 resulting in a significant calcium flux. […]

CCR2b = molecular target: T2, CCR2b (Homo sapiens, UniProt P41597); assay: gp120-induced calcium flux, Ghost (3) cells transfected with CCR2b; assay type: cell-based; details: Ghost (3) CCR2b cells
T2 construct: host or cells: Ghost (3) cells (human osteosarcoma, CD4+)
T2 sequence (P41597 1-360 isoform P41597-2): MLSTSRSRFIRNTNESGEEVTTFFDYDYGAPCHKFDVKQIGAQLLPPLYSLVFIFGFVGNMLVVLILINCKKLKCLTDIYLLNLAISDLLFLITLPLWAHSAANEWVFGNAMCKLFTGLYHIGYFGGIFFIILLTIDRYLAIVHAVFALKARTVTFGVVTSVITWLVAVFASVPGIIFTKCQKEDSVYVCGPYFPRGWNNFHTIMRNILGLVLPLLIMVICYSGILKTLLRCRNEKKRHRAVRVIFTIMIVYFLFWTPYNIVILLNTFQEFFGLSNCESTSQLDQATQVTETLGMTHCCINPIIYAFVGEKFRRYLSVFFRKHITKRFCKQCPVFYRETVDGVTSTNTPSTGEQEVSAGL
Excerpt: as §1, §2

CCR4 = molecular target: T3, CCR4 (Homo sapiens, UniProt P51679); assay: gp120-induced calcium flux, Ghost (3) cells transfected with CCR4; assay type: cell-based; details: Ghost (3) CCR4 cells
T3 construct: host or cells: Ghost (3) cells (human osteosarcoma, CD4+)
T3 sequence (P51679 1-360): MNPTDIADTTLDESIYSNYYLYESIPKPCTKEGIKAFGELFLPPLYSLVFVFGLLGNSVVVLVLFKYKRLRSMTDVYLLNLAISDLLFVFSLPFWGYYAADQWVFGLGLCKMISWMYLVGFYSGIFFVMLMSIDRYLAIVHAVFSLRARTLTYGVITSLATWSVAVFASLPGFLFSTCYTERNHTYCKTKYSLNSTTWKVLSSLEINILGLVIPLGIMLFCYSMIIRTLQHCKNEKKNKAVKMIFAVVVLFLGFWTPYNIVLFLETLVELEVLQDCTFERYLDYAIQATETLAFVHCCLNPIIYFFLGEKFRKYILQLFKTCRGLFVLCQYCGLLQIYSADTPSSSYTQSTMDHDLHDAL
Excerpt: as §1, §2

CCR3 = molecular target: T4, CCR3 (Homo sapiens, UniProt P51677); assay: gp120-induced calcium flux, Ghost (3) cells transfected with CCR3; assay type: cell-based; details: Ghost (3) CCR3 cells
T4 construct: host or cells: Ghost (3) cells (human osteosarcoma, CD4+)
T4 sequence (P51677 1-355): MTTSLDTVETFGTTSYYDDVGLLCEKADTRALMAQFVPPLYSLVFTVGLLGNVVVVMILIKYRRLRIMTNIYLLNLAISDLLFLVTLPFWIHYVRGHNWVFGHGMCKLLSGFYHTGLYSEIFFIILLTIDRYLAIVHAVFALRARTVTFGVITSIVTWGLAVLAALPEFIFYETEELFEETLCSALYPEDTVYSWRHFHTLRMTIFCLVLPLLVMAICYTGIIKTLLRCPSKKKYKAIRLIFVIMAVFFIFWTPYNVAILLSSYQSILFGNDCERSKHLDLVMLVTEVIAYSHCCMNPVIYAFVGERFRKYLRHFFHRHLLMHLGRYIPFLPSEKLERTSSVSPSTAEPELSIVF
Excerpt: as §1, §2

Substance	minimal concentration of gp120 resulting in a significant calcium flux ([1]; Ghost (3) parental line (expresses CXCR4 at very low levels))	minimal concentration of gp120 resulting in a significant calcium flux ([1]; Ghost (3) parental line (expresses CXCR4 at very low levels), listed as IIIB) [nM]	minimal concentration of gp120 resulting in a significant calcium flux (CCR8)	minimal concentration of gp120 resulting in a significant calcium flux (CCR2b)	minimal concentration of gp120 resulting in a significant calcium flux (CCR4)	minimal concentration of gp120 resulting in a significant calcium flux (CCR3)	minimal concentration of gp120 resulting in a significant calcium flux ([1]; Ghost (3) parental line)
gp120IIIB: HIV-1 envelope surface protein gp120 of strain IIIB (X4 trophic), from the AIDS Research Reagent Referral Program	about 1 nM	250	—	250 nM	—	—	
gp120SF2: gp120 of HIV strain SF2 (X4R5 trophic)			—	—	—	—	—
